The results in this text go back to PMC9044032, “OsbZIP47 Is an Integrator for Meristem Regulators During Rice Plant Growth and Development” (Frontiers in Plant Science, 2022).

For data set [1], the target named is T1, Trx-His-OsbZIP47 FL (Oryza sativa) (UniProt Q5Z6N9).
T1 sequence: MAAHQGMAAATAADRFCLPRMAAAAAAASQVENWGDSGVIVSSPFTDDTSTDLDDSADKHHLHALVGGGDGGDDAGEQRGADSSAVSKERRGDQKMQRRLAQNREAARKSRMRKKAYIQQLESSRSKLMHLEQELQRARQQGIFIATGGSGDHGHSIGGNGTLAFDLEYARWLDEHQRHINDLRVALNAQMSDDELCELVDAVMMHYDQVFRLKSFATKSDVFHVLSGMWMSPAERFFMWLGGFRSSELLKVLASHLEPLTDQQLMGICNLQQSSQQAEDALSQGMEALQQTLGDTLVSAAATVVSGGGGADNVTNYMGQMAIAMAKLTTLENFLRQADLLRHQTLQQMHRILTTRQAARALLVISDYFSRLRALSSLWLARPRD
Kind of data set: MST. As to conditions: MST: 10 mM HEPES-KOH pH 8.0, 50 mM NaCl, 0.5% Tween-20, 0.5 mM EDTA, 1 mM MgCl2, 10% glycerol, 80 nM protein, DNA 3.05 nM-100 uM, temperature not stated, EMSA: …. In general terms: In EMSA bound probe runs differently from free probe, usually more slowly.

Data set [2] concerns the molecule itself. Kind of data set: non-reducing SDS-PAGE; purified protein treated with 2 mM diamide, with 20 mM DTT, or with 2 mM diamide followed by 20 mM DTT; non-reducing 10% SDS-PAGE.

With “CAGCTGGCCCTGACGTCAGCAACCGG (double strand) [OsFCP1 locus EMSA-371]”, the Kd (usually the concentration at which binding is half-saturated) in data set [1] (oxidized, 1 mM oxidized glutathione) is 2160 nM; in data set [1] (reduced, 20 mM DTT) it was 815 nM.

B1: Thioredoxin-His-tagged OsbZIP47FL (natural protein, rice (Oryza sativa), UniProt Q5Z6N9 1-385, looked up)
chain: T1 sequence
notes: full-length CDS, amino acid 1 to 385; also called Trx-His-OsbZIP47 FL; Trx-His OsbZIP47; source: E. coli Rosetta (DE3), pET32a, purified
Consider B1, for which the binding result in data set [2] is “binds”.
